Target: the molecule itself
Test: SEC; analytical SEC, Agilent Bio SEC-3 HPLC column, TNT buffer (25 mM Tris pH 8.0, 150 mM NaCl, 1 mM TCEP), 25°C; proteins diluted to a range of concentrations (Fig 3B) and incubated at least 1 h at room temperature; 0.3 ml/min

| Protein | stoichiometry N |
| --- | --- |
| wild-type FICD, structured luminal domain (residues 104–445) (enzyme, human, UniProt Q9BVA6 104-445, looked up, human FICD, structured region, residues 104-445; The methods say His6-SUMO fusion (cleaved by Ulp1) or GST fusion (cleaved by TEV) without telling which for which protein; Purification as in Perera et al, 2019, 2021; also called WT; FICD^WT; not shown: His6-SUMO (or GST)) LEARAALNQALEMKRQGKREKAQKLFMHALKMDPDFVDALTEFGIFSEEDKDIIQADYLYTRALTISPYHEKALVNRDRTLPLVEEIDQRYFSIIDSKVKKVMSIPKGNSALRRVMEETYYHHIYHTVAIEGNTLTLSEIRHILETRYAVPGKSLEEQNEVIGMHAAMKYINTTLVSRIGSVTISDVLEIHRRVLGYVDPVEAGRFRTTQVLVGHHIPPHPQDVEKQMQEFVQWLNSEEAMNLHPVEFAALAHYKLVYIHPFIDGNGRTSRLLMNLILMQAGYPPITIRKEQRSDYYHVLEAANEGDVRPFIRFIAKCTETTLDTLLFATTEYSVALPEAQP | 2 |
| FICD^R371S, structured luminal domain (residues 104–445) (enzyme, human, UniProt Q9BVA6 104-445, looked up, human FICD, structured region, residues 104-445, with the patients' variant p.(Arg371Ser); Variant found homozygous in patients (NM_007076.2:c.1113G>C); also called Arg371Ser mutant FICD; FICD p.(Arg371Ser); not shown: His6-SUMO (or GST)) LEARAALNQALEMKRQGKREKAQKLFMHALKMDPDFVDALTEFGIFSEEDKDIIQADYLYTRALTISPYHEKALVNRDRTLPLVEEIDQRYFSIIDSKVKKVMSIPKGNSALRRVMEETYYHHIYHTVAIEGNTLTLSEIRHILETRYAVPGKSLEEQNEVIGMHAAMKYINTTLVSRIGSVTISDVLEIHRRVLGYVDPVEAGRFRTTQVLVGHHIPPHPQDVEKQMQEFVQWLNSEEAMNLHPVEFAALAHYKLVYIHPFIDGNGSTSRLLMNLILMQAGYPPITIRKEQRSDYYHVLEAANEGDVRPFIRFIAKCTETTLDTLLFATTEYSVALPEAQP | 2 |

Source: publication PMC9994480, “Infancy‐onset diabetes caused by de‐regulated AMPylation of the human endoplasmic reticulum chaperone BiP” (EMBO Molecular Medicine, 2023)
